Measurements published in US20240299575A1 (DENALI THERAPEUTICS, published 2024).
Where a chain is given by its changes, count along the chain named. Names and notes keep the numbering of the source.

B1: TV variant N297G knob (DNP02 Fab-Fc dimer fusion, CH3C.35.23.2 on the knob chain, LALAPG, N297G on the knob chain) (antibody, human IgG1, kappa, L234A L235A, N297G)
light: EIVMTQSPATLSLSPGERATLSCSASSSVSYMYWYQQKPGQAPRLLIYDTSNLASGIPARFSGSGSGTDFTLTISSLQPEDFAVYYCQQWSSYPPITFGQGTKVEIKRTVAAPSVFIFPPSDEQLKSGTASVVCLLNNFYPREAKVQWKVDNALQSGNSQESVTEQDSKDSTYSLSSTLTLSKADYEKHKVYACEVTHQGLSSPVTKSFNRGEC
heavy 1: QVQLQESGPGLVKPSETLSLTCAVSGYSITSDYAWNWIRQPPGKGLEWIGYMSYSGSTRYNPSLRSRVTISVDTSKNQFSLKLSSVTAADTAVYYCARGWPLAYWGQGTLVTVSSASTKGPSVFPLAPSSKSTSGGTAALGCLVKDYFPEPVTVSWNSGALTSGVHTFPAVLQSSGLYSLSSVVTVPSSSLGTQTYICNVNHKPSNTKVDKKVEPKSCDKTHTCPPCPAPEAAGGPSVFLFPPKPKDTLMISRTPEVTCVVVDVSHEDPEVKFNWYVDGVEVHNAKTKPREEQYGSTYRVVSVLTVLHQDWLNGKEYKCKVSNKALGAPIEKTISKAKGQPREPQVYTLPPSRDELTKNQVSLWCLVKGFYPSDIAVEWESYGTEWANYKTTPPVLDSDGSFFLYSKLTVTKEEWQQGFVFSCSVMHEALHNHYTQKSLSLSPGK
heavy 2: QVQLQESGPGLVKPSETLSLTCAVSGYSITSDYAWNWIRQPPGKGLEWIGYMSYSGSTRYNPSLRSRVTISVDTSKNQFSLKLSSVTAADTAVYYCARGWPLAYWGQGTLVTVSSASTKGPSVFPLAPSSKSTSGGTAALGCLVKDYFPEPVTVSWNSGALTSGVHTFPAVLQSSGLYSLSSVVTVPSSSLGTQTYICNVNHKPSNTKVDKKVEPKSCDKTHTCPPCPAPEAAGGPSVFLFPPKPKDTLMISRTPEVTCVVVDVSHEDPEVKFNWYVDGVEVHNAKTKPREEQYNSTYRVVSVLTVLHQDWLNGKEYKCKVSNKALGAPIEKTISKAKGQPREPQVYTLPPSRDELTKNQVSLSCAVKGFYPSDIAVEWESNGQPENNYKTTPPVLDSDGSFFLVSKLTVDKSRWQQGNVFSCSVMHEALHNHYTQKSLSLSPGK
notes: Knob-in-hole heterodimer with non-targeting DNP02 Fabs; also called BTGase Knob
B2: TV variant A114C (DNP02 Fab-Fc dimer fusion, CH3C.35.23.2 on the knob chain, LALAPG, A114C (Kabat) on the hole chain) (antibody, human IgG1, kappa, L234A L235A)
light: B1 light
heavy 1: B1 heavy 1 with G295N
heavy 2: B1 heavy 2 with A116C
notes: Knob-in-hole heterodimer with non-targeting DNP02 Fabs
B3: TV variant T289C (DNP02 Fab-Fc dimer fusion, CH3C.35.23.2 on the knob chain, LALAPG, T289C on the hole chain) (antibody, human IgG1, kappa, L234A L235A)
light: B1 light
heavy 1: B1 heavy 1 with G295N
heavy 2: B1 heavy 2 with T287C
notes: as for B2
B4: TV variant N297G hole (DNP02 Fab-Fc dimer fusion, CH3C.35.23.2 on the knob chain, LALAPG, N297G on the hole chain) (antibody, human IgG1, kappa, L234A L235A, N297G)
light: B1 light
heavy 1: B1 heavy 1 with G295N
heavy 2: B1 heavy 2 with N295G
notes: Knob-in-hole heterodimer with non-targeting DNP02 Fabs; also called BTGase Hole
B5: TV variant N297G OTR2 (DNP02 Fab-Fc dimer fusion, CH3C.35.23.2 on the knob chain, LALAPG, N297G on both chains) (antibody, human IgG1, kappa, L234A L235A, N297G)
light: B1 light
heavy 1: B1 heavy 1
heavy 2: B1 heavy 2 with N295G
notes: Knob-in-hole heterodimer with non-targeting DNP02 Fabs; also called BTGase DAR2
B6: TV variant K149C (DNP02 Fab-Fc dimer fusion, CH3C.35.23.2 on the knob chain, LALAPG, K149C on the DNP02 light chain) (antibody, human IgG1, kappa, L234A L235A)
light: B1 light with K149C
heavy 1: B1 heavy 1 with G295N
heavy 2: B1 heavy 2
notes: as for B2
B7: TV variant SansFab (Fc polypeptide dimer without Fab, CH3C.35.23.2 on the knob chain, S239C on the hole chain) (designed binder)
chain 1: DKTHTCPPCPAPEAAGGPSVFLFPPKPKDTLMISRTPEVTCVVVDVSHEDPEVKFNWYVDGVEVHNAKTKPREEQYNSTYRVVSVLTVLHQDWLNGKEYKCKVSNKALPAPIEKTISKAKGQPREPQVYTLPPSRDELTKNQVSLWCLVKGFYPSDIAVEWESYGTEWANYKTTPPVLDSDGSFFLYSKLTVTKEEWQQGFVFSCSVMHEALHNHYTQKSLSLSPGK
chain 2: DKTHTCPPCPAPEAAGGPCVFLFPPKPKDTLMISRTPEVTCVVVDVSHEDPEVKFNWYVDGVEVHNAKTKPREEQYNSTYRVVSVLTVLHQDWLNGKEYKCKVSNKALPAPIEKTISKAKGQPREPQVYTLPPSRDELTKNQVSLSCAVKGFYPSDIAVEWESNGQPENNYKTTPPVLDSDGSFFLVSKLTVDKSRWQQGNVFSCSVMHEALHNHYTQKSLSLSPGK
notes: Fc knob-in-hole heterodimer with a portion of the IgG1 hinge and LALA mutations; also called No Fab
B8: TV variant S442C (RSV Fab-Fc dimer fusion, CH3C.35.23.2 on the knob chain, S442C on the hole chain) (antibody, human IgG1, kappa, L234A L235A)
light: DIQMTQSPSTLSASVGDRVTITCKCQLSVGYMHWYQQKPGKAPKLLIYDTSKLASGVPSRFSGSGSGTEFTLTISSLQPDDFATYYCFQGSGYPFTFGGGTKLEIKRTVAAPSVFIFPPSDEQLKSGTASVVCLLNNFYPREAKVQWKVDNALQSGNSQESVTEQDSKDSTYSLSSTLTLSKADYEKHKVYACEVTHQGLSSPVTKSFNRGEC
heavy 1: QVTLRESGPALVKPTQTLTLTCTFSGFSLSTSGMSVGWIRQPPGKALEWLADIWWDDKKDYNPSLKSRLTISKDTSKNQVVLKVTNMEPADTATYYCARSMITNWYFDVWGAGTTVTVSSASTKGPSVFPLAPSSKSTSGGTAALGCLVKDYFPEPVTVSWNSGALTSGVHTFPAVLQSSGLYSLSSVVTVPSSSLGTQTYICNVNHKPSNTKVDKKVEPKSCDKTHTCPPCPAPEAAGGPSVFLFPPKPKDTLMISRTPEVTCVVVDVSHEDPEVKFNWYVDGVEVHNAKTKPREEQYNSTYRVVSVLTVLHQDWLNGKEYKCKVSNKALPAPIEKTISKAKGQPREPQVYTLPPSRDELTKNQVSLWCLVKGFYPSDIAVEWESYGTEWANYKTTPPVLDSDGSFFLYSKLTVTKEEWQQGFVFSCSVMHEALHNHYTQKSLSLSPGK
heavy 2: QVTLRESGPALVKPTQTLTLTCTFSGFSLSTSGMSVGWIRQPPGKALEWLADIWWDDKKDYNPSLKSRLTISKDTSKNQVVLKVTNMEPADTATYYCARSMITNWYFDVWGAGTTVTVSSASTKGPSVFPLAPSSKSTSGGTAALGCLVKDYFPEPVTVSWNSGALTSGVHTFPAVLQSSGLYSLSSVVTVPSSSLGTQTYICNVNHKPSNTKVDKKVEPKSCDKTHTCPPCPAPEAAGGPSVFLFPPKPKDTLMISRTPEVTCVVVDVSHEDPEVKFNWYVDGVEVHNAKTKPREEQYNSTYRVVSVLTVLHQDWLNGKEYKCKVSNKALPAPIEKTISKAKGQPREPQVYTLPPSRDELTKNQVSLSCAVKGFYPSDIAVEWESNGQPENNYKTTPPVLDSDGSFFLVSKLTVDKSRWQQGNVFSCSVMHEALHNHYTQKSLCLSPGK
notes: also called Conjugation site S442C

These binders were tested against T1, Human transferrin receptor protein 1 (TFR1) (human, UniProt P02786 89-760, limits assumed) (assay: column 'Affinity' of the construct table; method not stated).
T1 construct: also called huTfR
T1 sequence (P02786 89-760 limits assumed): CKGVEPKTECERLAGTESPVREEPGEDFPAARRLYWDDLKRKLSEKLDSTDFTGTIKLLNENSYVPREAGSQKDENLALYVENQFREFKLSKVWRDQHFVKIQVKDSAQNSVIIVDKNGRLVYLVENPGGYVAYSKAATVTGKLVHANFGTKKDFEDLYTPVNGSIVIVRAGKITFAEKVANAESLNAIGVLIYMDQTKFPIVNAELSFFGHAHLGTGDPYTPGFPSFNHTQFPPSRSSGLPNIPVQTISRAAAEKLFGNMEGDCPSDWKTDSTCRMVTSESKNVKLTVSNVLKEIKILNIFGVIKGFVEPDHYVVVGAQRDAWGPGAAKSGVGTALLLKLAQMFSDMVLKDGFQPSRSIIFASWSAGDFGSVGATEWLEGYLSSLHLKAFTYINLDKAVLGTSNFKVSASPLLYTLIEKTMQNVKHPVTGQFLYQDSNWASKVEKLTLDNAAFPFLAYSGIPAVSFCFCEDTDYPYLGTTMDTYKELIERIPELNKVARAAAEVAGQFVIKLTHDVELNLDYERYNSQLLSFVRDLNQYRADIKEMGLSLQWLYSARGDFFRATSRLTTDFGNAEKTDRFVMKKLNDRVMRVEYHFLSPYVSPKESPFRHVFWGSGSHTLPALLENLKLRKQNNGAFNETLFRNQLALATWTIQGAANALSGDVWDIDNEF

Question: With B1 as the binder, how does the Kd read?
Answer: The Kd was 100 nM.

Question: How did the Kd turn out when B2 was run?
Answer: The Kd was 100 nM.

Question: With B3 as the binder, how does the Kd read?
Answer: The Kd was 100 nM.

Question: How did the Kd turn out when B4 was run?
Answer: Its Kd is 100 nM.

Question: How did the Kd turn out when B5 was run?
Answer: Its Kd is 100 nM.

Question: Which Kd does the source give for B6 here?
Answer: Its Kd is 100 nM.

Molecular target: T1, Human transferrin receptor protein 1 …
Test: as above
Remark: another data set of the same source

Question: How did the Kd turn out when B7 was run?
Answer: The Kd was 100 nM.

Question: Which Kd does the source give for B8 here?
Answer: Its Kd is 100 nM.
